In article doi:10.1101/2023.09.15.557970 (bioRxiv, 2023):

Target: Human CSL spanning residues 25-449 (human, UniProt Q06330 25-449)
Assay: ITC

Sequence of Human CSL spanning residues 25-449 (Q06330 25-449): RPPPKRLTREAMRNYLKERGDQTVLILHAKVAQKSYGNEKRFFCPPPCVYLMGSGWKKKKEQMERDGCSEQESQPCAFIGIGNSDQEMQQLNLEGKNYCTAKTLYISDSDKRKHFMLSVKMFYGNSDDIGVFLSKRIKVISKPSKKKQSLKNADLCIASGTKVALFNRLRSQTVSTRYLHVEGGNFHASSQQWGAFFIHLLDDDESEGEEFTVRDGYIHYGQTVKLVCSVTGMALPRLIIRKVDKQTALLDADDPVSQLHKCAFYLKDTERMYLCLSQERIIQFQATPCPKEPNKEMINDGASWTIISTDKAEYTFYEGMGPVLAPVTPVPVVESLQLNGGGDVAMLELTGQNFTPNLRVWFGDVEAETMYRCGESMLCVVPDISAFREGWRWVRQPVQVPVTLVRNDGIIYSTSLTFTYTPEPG

Binder	Kd
Notch1 RAMANK (domain or fragment, human, UniProt P46531 1758-2127, looked up) RKRRRQHGQLWFPEGFKVSEASKKKRREPLGEDSVGLKPLKNASDGALMDDNQNEWGDEDLETKKFRFEEPVVLPDLDDQTDHRQWTQQHLDAADLRMSAMAPTPPQGEVDADCMDVNVRGPDGFTPLMIASCSGGGLETGNSEEEEDAPAVISDFIYQGASLHNQTDRTGETALHLAARYSRSDAAKRLLEASADANIQDNMGRTPLHAAVSADAQGVFQILIRNRATDLDARMHDGTTPLILAARLAVEGMLEDLINSHADVNAVDDLGKSALHWAAAVNNVDAAVVLLKNGANKDMQNNREETPLFLAAREGSYETAKVLLDHFANRDITDHMDRLPRDIAQERMHHDIVRLLDEYNLVRSPQLHGA	≤ 100 nM
Notch2 RAMANK (domain or fragment, human, UniProt Q04721 1699-2076, looked up) MAKRKRKHGSLWLPEGFTLRRDASNHKRREPVGQDAVGLKNLSVQVSEANLIGTGTSEHWVDDEGPQPKKVKAEDEALLSEEDDPIDRRPWTQQHLEAADIRRTPSLALTPPQAEQEVDVLDVNVRGPDGCTPLMLASLRGGSSDLSDEDEDAEDSSANIITDLVYQGASLQAQTDRTGEMALHLAARYSRADAAKRLLDAGADANAQDNMGRCPLHAAVAADAQGVFQILIRNRVTDLDARMNDGTTPLILAARLAVEGMVAELINCQADVNAVDDHGKSALHWAAAVNNVEATLLLLKNGANRDMQDNKEETPLFLAAREGSYEAAKILLDHFANRDITDHMDRLPRDVARDRMHHDIVRLLDEYNVTPSPPGTVL	≤ 100 nM

Other lines, results leading:

Kd	Binder
≤ 100 nM	Notch3 RAMANK (domain or fragment, human, UniProt Q9UM47 1663-2038, looked up) MVARRKREHSTLWFPEGFSLHKDVASGHKGRREPVGQDALGMKNMAKGESLMGEVATDWMDTECPEAKRLKVEEPGMGAEEAVDCRQWTQHHLVAADIRVAPAMALTPPQGDADADGMDVNVRGPDGFTPLMLASFCGGALEPMPTEEDEADDTSASIISDLICQGAQLGARTDRTGETALHLAARYARADAAKRLLDAGADTNAQDHSGRTPLHTAVTADAQGVFQILIRNRSTDLDARMADGSTALILAARLAVEGMVEELIASHADVNAVDELGKSALHWAAAVNNVEATLALLKNGANKDMQDSKEETPLFLAAREGSYEAAKLLLDHFANREITDHLDRLPRDVAQERLHQDIVRLLDQPSGPRSPPGPHG
≤ 100 nM	Notch4 RAMANK (domain or fragment, human, UniProt Q99466 1472-1833, looked up) RRRRREHGALWLPPGFTRRPRTQSAPHRRRPPLGEDSIGLKALKPKAEVDEDGVVMCSGPEEGEEVGQAEETGPPSTCQLWSLSGGCGALPQAAMLTPPQESEMEAPDLDTRGPDGVTPLMSAVCCGEVQSGTFQGAWLGCPEPWEPLLDGGACPQAHTVGTGETPLHLAARFSRPTAARRLLEAGANPNQPDRAGRTPLHAAVAADAREVCQLLLRSRQTAVDARTEDGTTPLMLAARLAVEDLVEELIAAQADVGARDKWGKTALHWAAAVNNARAARSLLQAGADKDAQDNREQTPLFLAAREGAVEVAQLLLGLGAARELRDQAGLAPADVAHQRNHWDLLTLLEGAGPPEARHKATP
